Data published in article PMC12799932, “Development of a VHH that inhibits the binding of neuronal pentraxin 2 to a postsynaptic glutamate receptor, AMPAR” (The Journal of Biological Chemistry, 2025).
Where “and” joins values, the source holds several entries; their conditions need not be identical. Equal entries are not always repeated.

Legend:
[1] = target: NP2 CC2 (construct consisting of only the CC2 region of NP2) (human) (UniProt P47972); experiment: mass photometry; Two^MP, 200 nM NP, 10 mM Hepes-NaOH pH 7.4, 150 mM NaCl, with 3 mM CaCl2, 25 °C
[2] = target: NP2 CC2 (construct consisting of only the CC2 region of NP2) (human) (UniProt P47972); experiment: mass photometry; Two^MP, 200 nM NP, 10 mM Hepes-NaOH pH 7.4, 150 mM NaCl, without CaCl2, 25 °C
[3] = target: T1, NP2 N- (neuronal pentraxin 2 in which CC1 was deleted) (human); experiment: mass photometry; Two^MP, 200 nM NP, 10 mM Hepes-NaOH pH 7.4, 150 mM NaCl, with 3 mM CaCl2, 25 °C; settings: both partners purified
T1 chain: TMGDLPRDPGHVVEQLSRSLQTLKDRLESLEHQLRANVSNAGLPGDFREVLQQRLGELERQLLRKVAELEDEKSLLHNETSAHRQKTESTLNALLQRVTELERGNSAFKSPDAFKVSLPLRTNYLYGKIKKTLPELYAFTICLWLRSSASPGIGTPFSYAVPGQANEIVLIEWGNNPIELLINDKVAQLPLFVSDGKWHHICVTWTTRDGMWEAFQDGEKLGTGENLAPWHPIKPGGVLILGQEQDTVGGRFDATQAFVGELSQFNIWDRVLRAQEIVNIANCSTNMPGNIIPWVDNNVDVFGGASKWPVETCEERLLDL

[4] = target: T1, NP2 N- (neuronal pentraxin 2 in which …); experiment: mass photometry; Two^MP, 200 nM NP, 10 mM Hepes-NaOH pH 7.4, 150 mM NaCl, without CaCl2, 25 °C; settings: both partners purified
[5] = target: T2, NP2 PTX (pentraxin domain of neuronal pentraxin 2) (human) (UniProt P47972); experiment: SPR; Biacore 8K; NP2 N- or NP2 PTX amine-coupled on CM5, VHH N1 analyte 5-80 nM, single-cycle kinetics; 10 mM Hepes-NaOH pH 7.4, 150 mM NaCl, 0.005% Tween-20, without CaCl2, 25 °C
T2 sequence: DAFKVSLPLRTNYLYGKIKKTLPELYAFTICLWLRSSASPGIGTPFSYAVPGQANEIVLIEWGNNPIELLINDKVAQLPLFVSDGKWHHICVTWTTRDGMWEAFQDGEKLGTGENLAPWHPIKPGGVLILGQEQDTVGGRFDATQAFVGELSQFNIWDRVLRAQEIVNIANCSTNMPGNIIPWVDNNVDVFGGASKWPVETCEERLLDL

[6] = target: NP2 N- (neuronal pentraxin 2 in which CC1 was deleted) (human); experiment: as above
[7] = target: NP2 C95S (full-length NP2 with cysteine 95 mutated to serine) (human) (UniProt P47972); experiment: mass photometry; Two^MP; equal amounts of VHH N1 and NP2 N- or NP2 C95S, 200 nM each (as monomer); 10 mM Hepes-NaOH pH 7.4, 150 mM NaCl, without CaCl2, 25 °C
[8] = target: NP2 N- (neuronal pentraxin 2 in which CC1 was deleted) (human); experiment: as above
[9] = target: T3, NPR PTX (pentraxin domain of neuronal pentraxin receptor) (human, UniProt O95502); experiment: SPR; Biacore 8K; NP1 PTX or NPR PTX (~600 RU) amine-coupled on CM5, VHH N1 analyte 625-10,000 nM, multicycle kinetics; 10 mM Hepes-NaOH pH 7.4, 150 mM NaCl, 0.005% Tween-20, 3 mM CaCl2, 25 °C; settings: both partners purified
T3 construct: neuronal pentraxin receptor (NPR, Nptxr), human, pentraxin (PTX) domain; also called PTX domain of NPR; source: Expi293 cells, secreted, purified (Ni-NTA, SEC)

[10] = target: T4, NP1 PTX (pentraxin domain of neuronal pentraxin 1) (human, UniProt Q15818); experiment: as above; settings: both partners purified
T4 construct: neuronal pentraxin 1 (NP1, Nptx1), human, pentraxin (PTX) domain; also called PTX domain of NP1; source: Expi293 cells, secreted, purified (Ni-NTA, SEC)

[11] = target: T2, NP2 PTX (pentraxin domain of neuronal pentraxin 2) (human); experiment: SPR; Biacore 8K; NP2 N- (~800 RU) or NP2 PTX (~600 RU) amine-coupled on CM5, VHH N1 analyte 1.25-20 nM, single-cycle kinetics; 10 mM Hepes-NaOH pH 7.4, 150 mM NaCl, 0.005% Tween-20, 3 mM CaCl2, 25 °C
[12] = target: NP2 N- (neuronal pentraxin 2 in which CC1 was deleted) (human); experiment: as above
NP2 PTX D407A = target: T5, NP2 PTX D407A (human, UniProt P47972, D407A); experiment: SPR; Biacore 8K; NP2 PTX single alanine mutants (~800 RU) amine-coupled on CM5, VHH N1 analyte 1.25-20 nM (D407A) or 62.5-1000 nM (V412A, W419A); 10 mM Hepes-NaOH pH 7.4, 150 mM NaCl, 0.005% Tween-20, 3 mM CaCl2; settings: both partners purified
T5 construct: neuronal pentraxin 2 (NP2, Nptx2), human, pentraxin (PTX) domain with D407A; also called D407A_(NP2 PTX); source: Expi293 cells, secreted, purified (same procedure as NP2 PTX WT)

[13] = target: T6, HA-NP2 (HA-tagged mouse full-length NP2) (Mus musculus, UniProt O70340); experiment: immunostaining of cells or tissue; HEK293 cells expressing HA-tagged mouse NPs, fixed with 4% paraformaldehyde, permeabilized, stained with 1 μg/ml VHH N1, detected by rabbit anti-His; anti-HA as expression control; settings: one partner purified
T6 construct: source: HEK293, transfected, in fixed cells; HEK293 tSA cells, cell supernatant; not shown: HA, N-terminal, kept

[14] = target: T2, NP2 PTX (pentraxin domain of neuronal pentraxin 2) (human); experiment: SPR; competition; Biacore T200; GluA4 ATD (~800 RU) amine-coupled on CM5, 500 nM NP2 PTX mixed with 0-1000 nM VHH N1 as analyte; 10 mM Hepes-NaOH pH 7.4, 150 mM NaCl, 3 mM CaCl2, 0.005% Tween-20
VHH N1 (alpaca) [15] = experiment: ITC; iTC200; 50 μM NP2 PTX from the syringe into 5 μM VHH N1 in the cell; 10 mM Hepes-NaOH pH 7.4, 150 mM NaCl, 0 mM CaCl2, 25 °C
VHH N1 (alpaca) [16] = experiment: ITC; iTC200; 50 μM NP2 PTX from the syringe into 5 μM VHH N1 in the cell; 10 mM Hepes-NaOH pH 7.4, 150 mM NaCl, 3 mM CaCl2, 25 °C
[17] = target: T7, GluA4 ATD (amino-terminal domain of human GluA4), recombinant (human, UniProt P48058 21-402); experiment: SPR; Biacore T200; GluA4 ATD (~400 RU) amine-coupled on CM5, NP2 constructs as analytes (31.25-2000 nM NP2 N- and NP2 PTX, 62.5-4000 nM NP2 CC2); 10 mM Hepes-NaOH pH 7.4, 150 mM NaCl, 0.005% Tween-20, with 3 mM CaCl2; settings: both partners purified
T7 construct: AMPA-type glutamate receptor subunit GluA4, human, amino-terminal domain (ATD); source: Expi293 cells, secreted, purified (Ni-NTA, SEC)
T7 sequence (looked up): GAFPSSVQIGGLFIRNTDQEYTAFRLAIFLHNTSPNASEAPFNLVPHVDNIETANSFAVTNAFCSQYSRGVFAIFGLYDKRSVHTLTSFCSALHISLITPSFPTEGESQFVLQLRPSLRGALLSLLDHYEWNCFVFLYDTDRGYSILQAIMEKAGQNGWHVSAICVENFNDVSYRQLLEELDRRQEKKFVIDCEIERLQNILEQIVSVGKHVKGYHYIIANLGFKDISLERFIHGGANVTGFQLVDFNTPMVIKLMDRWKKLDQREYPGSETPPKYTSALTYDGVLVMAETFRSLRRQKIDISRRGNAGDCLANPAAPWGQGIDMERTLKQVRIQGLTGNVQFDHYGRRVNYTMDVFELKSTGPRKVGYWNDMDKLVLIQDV

T3 sequence (O95502 292-494): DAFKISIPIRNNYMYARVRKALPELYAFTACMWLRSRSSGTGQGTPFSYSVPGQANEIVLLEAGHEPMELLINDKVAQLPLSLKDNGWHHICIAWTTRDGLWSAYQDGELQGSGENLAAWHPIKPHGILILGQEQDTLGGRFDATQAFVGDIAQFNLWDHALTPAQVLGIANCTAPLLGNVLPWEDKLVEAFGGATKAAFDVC
T4 sequence (Q15818 226-428): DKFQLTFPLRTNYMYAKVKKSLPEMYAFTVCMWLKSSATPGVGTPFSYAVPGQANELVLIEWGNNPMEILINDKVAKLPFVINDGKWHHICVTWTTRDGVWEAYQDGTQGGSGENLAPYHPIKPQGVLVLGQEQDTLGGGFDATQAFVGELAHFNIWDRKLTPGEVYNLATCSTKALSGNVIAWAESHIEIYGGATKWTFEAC

NP2 CC2 (construct consisting of only the CC2 region of NP2) (from UniProt P47972 16-431) (domain or fragment)
stoichiometry N [1]: > 3 | stoichiometry N [2]: > 3

B1: NP2 N- (neuronal pentraxin 2 in which CC1 was deleted) (domain or fragment)
chain: TMGDLPRDPGHVVEQLSRSLQTLKDRLESLEHQLRANVSNAGLPGDFREVLQQRLGELERQLLRKVAELEDEKSLLHNETSAHRQKTESTLNALLQRVTELERGNSAFKSPDAFKVSLPLRTNYLYGKIKKTLPELYAFTICLWLRSSASPGIGTPFSYAVPGQANEIVLIEWGNNPIELLINDKVAQLPLFVSDGKWHHICVTWTTRDGMWEAFQDGEKLGTGENLAPWHPIKPGGVLILGQEQDTVGGRFDATQAFVGELSQFNIWDRVLRAQEIVNIANCSTNMPGNIIPWVDNNVDVFGGASKWPVETCEERLLDL
modifications: Exact start is not in the text (Figures 1B and S1); it is set by convention just after CC1 and its Cys95, keeping CC2, PTX and the native C-terminus. Human is inferred from the D407/V412/W419 …
stoichiometry N [3]: 9 and 12 | stoichiometry N [4]: 6 and 3

B2: VHH N1 (VHH)
VHH: QLQLVESGGGLVQAGDSLKLSCIDSGSTFNLYAMGWFRQAPGKEREFVASISRGGGSSYYADSQLKGRFTISRDNAKNTVYLQMNSLKPEDTAVYYCNARAGRYDYWGQGTQVTVSS
notes: selected by phage display from an immune library of an alpaca immunized with NP2 N-; Cloned into the pRA2 vector with a C-terminal His-tag; detected by anti-His in the cell staining; also called N1 VHH; VHH for NP2; source: E. coli BL21 (DE3), purified (Ni-NTA, SEC); not shown: His-tag, C-terminal, kept
Kd [5]: 11.6 nM | koff [5]: 0.0249 s⁻¹ | kon [5]: 2.21e+06 M⁻¹ s⁻¹ | Kd [6]: 33.5 nM | koff [6]: 0.00514 s⁻¹ | kon [6]: 156000 M⁻¹ s⁻¹ | stoichiometry N [7]: 1 | stoichiometry N [8]: 1 | binding result [9]: no binding (tested: 10,000 nM) | binding result [10]: no binding (tested: 10,000 nM) | Kd [11]: 1.14 nM | koff [11]: 0.00208 s⁻¹ | kon [11]: 1.92e+06 M⁻¹ s⁻¹ | Kd [12]: 1.41 nM | koff [12]: 0.00524 s⁻¹ | kon [12]: 3.7e+06 M⁻¹ s⁻¹ | fold change of affinity against NP2 PTX WT (NP2 PTX D407A): 3 times lower | binding result [13]: binds | IC50 [14]: 216 nM

B3: NP2 PTX (pentraxin domain of neuronal pentraxin 2) (domain or fragment, human)
chain: DAFKVSLPLRTNYLYGKIKKTLPELYAFTICLWLRSSASPGIGTPFSYAVPGQANEIVLIEWGNNPIELLINDKVAQLPLFVSDGKWHHICVTWTTRDGMWEAFQDGEKLGTGENLAPWHPIKPGGVLILGQEQDTVGGRFDATQAFVGELSQFNIWDRVLRAQEIVNIANCSTNMPGNIIPWVDNNVDVFGGASKWPVETCEERLLDL
notes: neuronal pentraxin 2 (NP2, Nptx2), human, pentraxin (PTX) domain; also called NP2 PTX WT; PTX domain of NP2; source: Expi293 cells, secreted, purified (Ni-NTA, SEC)
Kd (VHH N1 (alpaca) [15]): 57.5 nM | dH (VHH N1 (alpaca) [15]): -7.53 kcal/mol | stoichiometry N (VHH N1 (alpaca) [15]): 0.781 | Kd (VHH N1 (alpaca) [16]): 19.7 nM | dH (VHH N1 (alpaca) [16]): -7.36 kcal/mol | stoichiometry N (VHH N1 (alpaca) [16]): 0.913 | Kd [17]: 13600 nM
